Measured values: US20160145299A1 (CENTRE NATIONAL DE LA RECHERCHE SCIENTIFIQUE, published 2016)
Where no end group is shown, it is not given here.

Molecular target: cdk2/cyclin A complex (UniProt P24941 1-298; P20248 1-432)
Experiment: cell-based or functional assay

KKQVRMAHLVLT (also: fluorescent label Cy5 or FITC, position not given here) [Peptide targeting CDK/Cyclin C4: KKQVRMAHLVLT (SEQ ID No: 8)]
IC50 of cell proliferation, Hela, C4 delivered with Short6: 80 nM
IC50 of cell proliferation, Hela, C4 delivered with short7: 45 nM
IC50 of cell proliferation, Hela, C4 delivered with short11: 150 nM
IC50 of cell proliferation, MCF7, C4 delivered with Short6: 50 nM
IC50 of cell proliferation, MCF7, C4 delivered with short7: 80 nM
IC50 of cell proliferation, MCF7, C4 delivered with short11: 200 nM
